This note sets out measurements from US20070020327A1.

The target of assay [1] is HLA-A*0202 (human). Put plainly: inhibition of 125I-labelled probe peptide binding to purified HLA; gel filtration. Conditions: remark: other sources report otherwise. (In general: In gel filtration, larger molecules generally elute earlier.)
In a further assay the target is HLA-B*0702 (human). Briefly: competition with 125I-labelled standard peptide for purified HLA-B*0702, gel filtration. Conditions: scale: ratio.
In assay [2] the target is HLA-A*0202 (human). Put plainly: inhibition of 125I-labelled standard peptide binding to purified HLA-A*0202, gel filtration.
For assay [3], the target named is HLA-A*0206 (human). Briefly: inhibition of 125I-labelled standard peptide binding to purified HLA-A*0206, gel filtration.
The target of assay [4] is HLA-A*0201 (human). Briefly: inhibition of 125I-labelled standard peptide binding to purified HLA-A*0201, gel filtration.
Assay [5] addresses HLA-A*0203 (human). Briefly: inhibition of 125I-labelled standard peptide binding to purified HLA-A*0203, gel filtration.
Assay [6] concerns the target HLA-A*1101 (human). Put plainly: competition with a radiolabelled standard peptide on purified HLA-A*1101, gel filtration.
Another assay deals with HLA-A*0301 (human). Put plainly: competition with 125I-labelled standard peptide 941.12 for purified HLA, gel filtration. Conditions: scale: ratio.
In assay [7] the target is HLA-A*1101 (human). Briefly: competition with 125I-labelled standard peptide 940.06 for purified HLA, gel filtration. Conditions: scale: ratio.
For assay [8], the target named is HLA-A*0201 (human). Put plainly: competitive inhibition of 125I-labelled standard peptide binding to purified HLA. Conditions: remark: other sources report otherwise.
The target in assay [9] is HLA-A*0206 (human). Put plainly: inhibition of 125I-labelled probe peptide binding to purified HLA, gel filtration.
Assay [10] concerns the target HLA-A*0203 (human). Described as above.
In assay [11] the target is HLA-A*0201 (human). The assay is described as above.
Assay [12] deals with HLA-A*0206 (human). Briefly: competitive inhibition of 125I-labelled standard peptide binding to purified HLA. Conditions: remark: other sources report otherwise.
The next assay concerns the target HLA-A*6802 (human). Put plainly: inhibition of 125I-labelled probe peptide binding to purified HLA, gel filtration.
Setting [13] is: remark: other sources report otherwise.

Read-outs that look alike come from different tables or passages of the source.

Take GLHGQDLFGI (modifications not checked) [peptide 1166.11 (PAP.196)]: the IC50 (commonly the concentration that gives 50% inhibition) with HLA-A*0202 (human) [1] amounted to 0.9 nM. Turning to GPLVCNGVL (modifications not checked) [PSA 211 …], in the assay with HLA-B*0702 (human), the binding affinity ratio was found to be 0.028.

For CARAYSEKV (modifications not checked), the binding affinity ratio (IC50 of standard peptide / IC50 of test peptide) with HLA-A*0202 (human) [2] is 0.0006; in the assay with HLA-A*0206 (human) [3], 0.0002; with HLA-A*0201 (human) [4], -0.0001. With CTGAVPLI (modifications not checked) [CTGAVPLI (Kallikrein, position 14)], the binding affinity ratio (IC50 of standard peptide / IC50 of test peptide) in the assay with HLA-A*0202 (human) [2] stood at 0.0001; with HLA-A*0203 (human) [5] it was 0.0001; in the assay with HLA-A*0206 (human) [3] it was 0.0012; with HLA-A*0201 (human) [4] it was 0.0001. Regarding YGIHKQKEK (modifications not checked) [PAP peptide … (position 247, 9 amino acids)], in the assay with HLA-A*1101 (human) [6], the binding affinity ratio (IC50 of standard peptide / IC50 of test peptide) was 0.0002. In the case of WATEDTMTK (modifications not checked) [PAP peptide … (position 226, 9 amino acids)], the binding affinity ratio (IC50 of standard peptide / IC50 of test peptide) with HLA-A*1101 (human) [6] worked out at 0.0002. Take HPQKVTKFM (modifications not checked): the binding affinity ratio in the assay with HLA-B*0702 (human) was 0.17.

As for DALFDIESK (modifications not checked) [PSM 710 …], the binding affinity ratio is 0.0006 with HLA-A*0301 (human) and 0.0002 with HLA-A*1101 (human) [7]. DMSLLKNR (modifications not checked) [PSA 98 DMSLLKNR]: the binding affinity ratio with HLA-A*0301 (human) came out at 0.0003; in the assay with HLA-A*1101 (human) [7], 0.0001. As to HPQKVTKFML (modifications not checked), the binding affinity ratio in the assay with HLA-B*0702 (human) is 0.023.

Turning to CSPSCPLER (modifications not checked) [PAP 347 …], the results for the binding affinity ratio with HLA-A*0301 (human) and with HLA-A*1101 (human) [7] were 0.004 and 0.0006, respectively.

As to MPEGDLVYV (modifications not checked) [PSM 169 …], in the assay with HLA-B*0702 (human), the binding affinity ratio is 0.0001. In the assay with HLA-A*0201 (human) [8], DLMLLRLSEPV (modifications not checked) [Peptide 63.0109, … (PSA.116.V11)] returned an IC50 of 50 nM.

On to CAGRWTGGKST (modifications not checked) [… (PSA, position 194)], for which the binding affinity ratio (IC50 of standard peptide / IC50 of test peptide) was found to be 0.037 with HLA-A*0202 (human) [2] (setting [13]), 0.025 with HLA-A*0203 (human) [5] (setting [13]), 0.0002 with HLA-A*0206 (human) [3] (setting [13]) and 0.0013 with HLA-A*0201 (human) [4] (setting [13]).

Regarding SLQCVSLHV (modifications not checked) [Peptide 1418.19 (HuK2.170.V9) …], the half-inhibitory concentration (IC50) with HLA-A*0206 (human) [9] (setting [13]) was 4110 nM; with HLA-A*0203 (human) [10] (setting [13]), 48 nM; with HLA-A*0201 (human) [11] (setting [13]), 56 nM.

Turning to CARAYSEKVT (modifications not checked), the binding affinity ratio (IC50 of standard peptide / IC50 of test peptide) with HLA-A*0203 (human) [5] (setting [13]) stood at 0.02; in the assay with HLA-A*0206 (human) [3] (setting [13]) it was 0.003; in the assay with HLA-A*0201 (human) [4] (setting [13]), 0.0074.

For the molecule VTKFMLCAGR (modifications not checked) [PSA peptide … (position 188, 10 amino acids)], in the assay with HLA-A*1101 (human) [6] (setting [13]), the binding affinity ratio (IC50 of standard peptide / IC50 of test peptide) came out at 0.012. Take CALPERPSLYT (modifications not checked) [… (PSA, position 230)]: the binding affinity ratio (IC50 of standard peptide / IC50 of test peptide) in the assay with HLA-A*0203 (human) [5] (setting [13]) worked out at 0.0071; with HLA-A*0206 (human) [3] (setting [13]), 0.0016; with HLA-A*0201 (human) [4] (setting [13]) it was 0.0008.

With GPLVCNGVL (modifications not checked) [Kallikrein 215 …], in the assay with HLA-B*0702 (human), the binding affinity ratio is 0.028.

On to VVFLTLSVTWV (modifications not checked) [Peptide 63.0185, … (PSA.1.V11)], for which the IC50 amounted to 336 nM in the assay with HLA-A*0206 (human) [12] and 89 nM with HLA-A*0201 (human) [8]. Regarding DVLLSYPNK (modifications not checked) [PSM 114 …], the binding affinity ratio was determined as 0.0006 with HLA-A*0301 (human) and 0.001 with HLA-A*1101 (human) [7].

Consider CVSLHLLSNDM (modifications not checked) [… (Kallikrein, position 173)], for which the binding affinity ratio (IC50 of standard peptide / IC50 of test peptide) in the assay with HLA-A*0203 (human) [5] amounted to 0.002; with HLA-A*0206 (human) [3] it was 0.0009; with HLA-A*0201 (human) [4] it was 0.0002. For the molecule ALFPPEGVSV (modifications not checked) [peptide 1419.61 (PAP.122.V10)], the IC50 in the assay with HLA-A*0202 (human) [1] came to 1 nM. LMLLRLSEPA (modifications not checked) [Peptide 63.0014 (HuK2.121; PSA.117) …]: the IC50 was determined as 200 nM with HLA-A*0201 (human) [11] (setting [13]) and 5000 nM with HLA-A*6802 (human) (setting [13]). Consider VLTAAHCIR (modifications not checked) [PSA peptide … (position 56, 9 amino acids)], for which the binding affinity ratio (IC50 of standard peptide / IC50 of test peptide) with HLA-A*1101 (human) [6] came to 0.0005. The same measure, in the same setting: the same measure for YDAQKLLEK (modifications not checked) [PSM peptide … (position 300, 9 amino acids)]: 0.0002.

Consider SVGCTGAVPV (modifications not checked) [Peptide 1418.35 (HuK2.11.V10) …], for which the figures for the IC50 in the assay with HLA-A*0206 (human) [9] (setting [13]), with HLA-A*0203 (human) [10] (setting [13]) and with HLA-A*0201 (human) [11] (setting [13]) were 552 nM, 154 nM and 104 nM, respectively. On to ITLSVGCTGAV (modifications not checked) [Peptide 1418.59 (HuK2.8.T2) …], for which the IC50 came out at 206 nM with HLA-A*0206 (human) [9], 40 nM with HLA-A*0203 (human) [10], 294 nM in the assay with HLA-A*0201 (human) [11] and 121 nM with HLA-A*6802 (human). For the molecule DIESKVDPSK (modifications not checked) [PSM 714 …], the figures for the binding affinity ratio in the assay with HLA-A*0301 (human) and with HLA-A*1101 (human) [7] were 0.0003 and 0.0002, respectively. On the same counts, the results for DTFPTDPIK (modifications not checked) [PAP 51 …] are 0.0001 and 0.0001. The molecule KLQCVDLHVV (modifications not checked) [Peptide 63.0058, … (PSA.166.V10)] displayed an IC50 in the assay with HLA-A*0206 (human) [12] of 500 nM. On to HPQEMKTYSV (modifications not checked) [PSM 618 …], for which the binding affinity ratio with HLA-B*0702 (human) worked out at 0.0003. On to YGKVFRGNK (modifications not checked) [PSM peptide … (position 205, 9 amino acids)], for which the binding affinity ratio (IC50 of standard peptide / IC50 of test peptide) with HLA-A*1101 (human) [6] is 0.0002.

Consider YASCHLTELY (modifications not checked) [PAP peptide … (position 310, 10 amino acids)], for which, in the assay with HLA-A*1101 (human) [6] (setting [13]), the binding affinity ratio (IC50 of standard peptide / IC50 of test peptide) was 0.0002. As for EIASKFSER (modifications not checked) [PSM 641 …], the binding affinity ratio turned out to be 0.0006 in the assay with HLA-A*0301 (human) and 0.0002 in the assay with HLA-A*1101 (human) [7]. Consider AVYSHGWA (modifications not checked) [AVYSHGWA (Kallikrein, position 41)], for which the binding affinity ratio (IC50 of standard peptide / IC50 of test peptide) was 0.0005 with HLA-A*0202 (human) [2] and -0.0001 with HLA-A*0201 (human) [4]. Consider HPLYDMSLL (modifications not checked) [PSA 94 …], for which the binding affinity ratio in the assay with HLA-B*0702 (human) stood at 0.0018.
